Measurements reported in the supplement of paper PMC12458215.
± gives the uncertainty stated by the source.

Test system: HEK293T
Test: plasma membrane surface immunostaining intensity (anti-HA, deep receptor scanning) (arbitrary fluorescence units); higher = higher plasma membrane expression

Sequence	plasma membrane surface immunostaining intensity (GPCR class: A)	plasma membrane surface immunostaining intensity (GPCR class: A (Olfactory))	further results
MASPRSSGQPGPPPPPPPPPARLLLLLLLPLLLPLAPGAWGWARGAPRPPPSSPPLSIMGLMPLTKEVAKGSIGRGVLPAVELAIEQIRNESLLRPYFLDLRLYDTECDNAKGLKAFYDAIKYGPNHLMVFGGVCPSVTSIIAESLQGWNLVQLSFAATTPVLADKKKYPYFFRTVPSDNAVNPAILKLLKHYQWKRVGTLTQDVQRFSEVRNDLTGVLYGEDIEISDTESFSNDPCTSVKKLKGNDVRIILGQFDQNMAAKVFCCAYEENMYGSKYQWIIPGWYEPSWWEQVHTEANSSRCLRKNLLAAMEGYIGVDFEPLSSKQIKTISGKTPQQYEREYNNKRSGVGPSKFHGYAYDGIWVIAKTLQRAMETLHASSRHQRIQDFNYTDHTLGRIILNAMNETNFFGVTGQVVFRNGERMGTIKFTQFQDSREVKVGEYNAVADTLEIINDTIRFQGSEPPKDKTIILEQLRKISLPLYSILSALTILGMIMASAFLFFNIKNRNQKLIKMSSPYMNNLIILGGMLSYASIFLFGLDGSFVSEKTFETLCTVRTWILTVGYTTAFGAMFAKTWRVHAIFKNVKMKKKIIKDQKLLVIVGGMLLIDLCILICWQAVDPLRRTVEKYSMEPDPAGRDISIRPLLEHCENTHMTIWLGIVYAYKGLLMLFGCFLAWETRNVSIPALNDSKYIGMSVYNVGIMCIIGAAVSFLTRDQPNVQFCIVALVIIFCSTITLCLVFVPKLITLRTNPDAATQNRRFQFTQNQKKEDSKTSTSVTSVNQASTSRLEGLQSENHRLRMKITELDKDLEEVTMQLQDTPEKTTYIKQNHYQELNDILNLGNFTESTDGGKAILKNHLDQNPQLQWNTTEPSRTCKDPIEDINSPEHIQRRLSLQLPILHHAYLPSIGGVDASCVSPCVSPTASPRHRHVPPSFRVMVSGL [GABBR2]	–	–	plasma membrane surface immunostaining intensity (GPCR class: C): 6210 ± 48
MASPSLPGSDCSQIIDHSHVPEFEVATWIKITLILVYLIIFVMGLLGNSATIRVTQVLQKKGYLQKEVTDHMVSLACSDILVFLIGMPMEFYSIIWNPLTTSSYTLSCKLHTFLFEACSYATLLHVLTLSFERYIAICHPFRYKAVSGPCQVKLLIGFVWVTSALVALPLLFAMGTEYPLVNVPSHRGLTCNRSSTRHHEQPETSNMSICTNLSSRWTVFQSSIFGAFVVYLVVLLSVAFMCWNMMQVLMKSQKGSLAGGTRPPQLRKSESEESRTARRQTIIFLRLIVVTLAVCWMPNQIRRIMAAAKPKHDWTRSYFRAYMILLPFSETFFYLSSVINPLLYTVSSQQFRRVFVQVLCCRLSLQHANHEKRLRVHAHSTTDSARFVQRPLLFASRRQSSARRTEKIFLSTFQSEAEPQSKSQSLSLESLEPNSGAKPANSAAENGFQEHEV [GPR39]	5870 ± 200	–	–
MASPSNDSTAPVSEFLLICFPNFQSWQHWLSLPLSLLFLLAMGANTTLLITIQLEASLHQPLYYLLSLLSLLDIVLCLTVIPKVLAIFWFDLRSISFPACFLQMFIMNSFLTMESCTFMVMAYDRYVAICHPLRYPSIITDQFVARAVVFVIARNAFVSLPVPMLSARLRYCAGNIIKNCICSNLSVSKLSCDDITFNQLYQFVAGWTLLGSDLILIVISYSFILKVVLRIKAEGAVAKALSTCGSHFILILFFSTVLLVLVITNLARKRIPPDVPILLNILHHLIPPALNPIVYGVRTKEIKQGIQNLLKRL [OR56A4]	–	419 ± 210	–
MASSTTRGPRVSDLFSGLPPAVTTPANQSAEASAGNGSVAGADAPAVTPFQSLQLVHQLKGLIVLLYSVVVVVGLVGNCLLVLVIARVRRLHNVTNFLIGNLALSDVLMCTACVPLTLAYAFEPRGWVFGGGLCHLVFFLQPVTVYVSVFTLTTIAVDRYVVLVHPLRRRISLRLSAYAVLAIWALSAVLALPAAVHTYHVELKPHDVRLCEEFWGSQERQRQLYAWGLLLVTYLLPLLVILLSYVRVSVKLRNRVVPGCVTQSQADWDRARRRRTFCLLVVIVVVFAVCWLPLHVFNLLRDLDPHAIDPYAFGLVQLLCHWLAMSSACYNPFIYAWLHDSFREELRKLLVAWPRKIAPHGQNMTVSVVI [PRLHR]	5220 ± 340	–	–
MASSWPPLELQSSNQSQLFPQNATACDNAPEAWDLLHRVLPTFIISICFFGLLGNLFVLLVFLLPRRQLNVAEIYLANLAASDLVFVLGLPFWAENIWNQFNWPFGALLCRVINGVIKANLFISIFLVVAISQDRYRVLVHPMASRRQQRRRQARVTCVLIWVVGGLLSIPTFLLRSIQAVPDLNITACILLLPHEAWHFARIVELNILGFLLPLAAIVFFNYHILASLRTREEVSRTRCGGRKDSKTTALILTLVVAFLVCWAPYHFFAFLEFLFQVQAVRGCFWEDFIDLGLQLANFFAFTNSSLNPVIYVFVGRLFRTKVWELYKQCTPKSLAPISSSHRKEIFQLFWRN [BDKRB1]	976 ± 180	–	–
MASTSNVTELIFTGLFQDPAVQSVCFVVFLPVYLATVVGNGLIVLTVSISKSLDSPMYFFLSCLSLVEISYSSTIAPKFIIDLLAKIKTISLEGCLTQIFFFHFFGVAEILLIVVMAYDCYVAICKPLHYMNIISRQLCHLLVAGSWLGGFCHSIIQILVIIQLPFCGPNVIDHYFCDLQPLFKLACTDTFMEGVIVLANSGLFSVFSFLILVSSYIVILVNLRNHSAEGRHKALSTCASHITVVILFFGPAIFLYMRPSSTFTEDKLVAVFYTVITPMLNPIIYTLRNAEVKIAIRRLWSKKENPGRE [OR4B1]	–	131 ± 38	–
MATELDKIFLILAIAEFIISMLGNVFIGLVNCSEGIKNQKVFSADFILTCLAISTIGQLLVILFDSFLVGLASHLYTTYRLGKTVIMLWHMTNHLTTWLATCLSIFYFFKIAHFPHSLFLWLRWRMNGMIVMLLILSLFLLIFDSLVLEIFIDISLNIIDKSNLTLYLDESKTLYDKLSILKTLLSLTSFIPFSLFLTSLLFLFLSLVRHTRNLKLSSLGSRDSSTEAHRRAMKMVMSFLFLFIVHFFSLQVANWIFFMLWNNKCIKFVMLALNAFPSCHSFILILGNSKLQQTAVRLLWHLRNYTKTPNPLPL [TAS2R42]	–	–	plasma membrane surface immunostaining intensity (GPCR class: Taste): 114 ± 7.7
MATLPAAETWIDGGGGVGADAVNLTASLAAGAATGAVETGWLQLLDQAGNLSSSPSALGLPVASPAPSQPWANLTNQFVQPSWRIALWSLAYGVVVAVAVLGNLIVIWIILAHKRMRTVTNYFLVNLAFSDASMAAFNTLVNFIYALHSEWYFGANYCRFQNFFPITAVFASIYSMTAIAVDRYMAIIDPLKPRLSATATKIVIGSIWILAFLLAFPQCLYSKTKVMPGRTLCFVQWPEGPKQHFTYHIIVIILVYCFPLLIMGITYTIVGITLWGGEIPGDTCDKYHEQLKAKRKVVKMMIIVVMTFAICWLPYHIYFILTAIYQQLNRWKYIQQVYLASFWLAMSSTMYNPIIYCCLNKRFRAGFKRAFRWCPFIKVSSYDELELKTTRFHPNRQSSMYTVTRMESMTVVFDPNDADTTRSSRKKRATPRDPSFNGCSRRNSKSASATSSFISSPYTSVDEYS [TACR3]	4780 ± 620	–	–
MAVAPLRGALLLWQLLAAGGAALEIGRFDPERGRGAAPCQAVEIPMCRGIGYNLTRMPNLLGHTSQGEAAAELAEFAPLVQYGCHSHLRFFLCSLYAPMCTDQVSTPIPACRPMCEQARLRCAPIMEQFNFGWPDSLDCARLPTRNDPHALCMEAPENATAGPAEPHKGLGMLPVAPRPARPPGDLGPGAGGSGTCENPEKFQYVEKSRSCAPRCGPGVEVFWSRRDKDFALVWMAVWSALCFFSTAFTVLTFLLEPHRFQYPERPIIFLSMCYNVYSLAFLIRAVAGAQSVACDQEAGALYVIQEGLENTGCTLVFLLLYYFGMASSLWWVVLTLTWFLAAGKKWGHEAIEAHGSYFHMAAWGLPALKTIVILTLRKVAGDELTGLCYVASTDAAALTGFVLVPLSGYLVLGSSFLLTGFVALFHIRKIMKTGGTNTEKLEKLMVKIGVFSILYTVPATCVIVCYVYERLNMDFWRLRATEQPCAAAAGPGGRRDCSLPGGSVPTVAVFMLKIFMSLVVGITSGVWVWSSKTFQTWQSLCYRKIAAGRARAKACRAPGSYGRGTHCHYKAPTVVLHMTKTDPSLENPTHL [FZD9]	–	–	plasma membrane surface immunostaining intensity (GPCR class: F): 1560 ± 410
MAVGRNNTIVTKFILLGLSDHPQMKIFLFMLFLGLYLLTLAWNLSLIALIKMDSHLHMPMYFFLSNLSFLDICYVSSTAPKMLSDIITEQKTISFVGCATQYFVFCGMGLTECFLLAAMAYDRYAAICNPLLYTVLISHTLCLKMVVGAYVGGFLSSFIETYSVYQHDFCGPYMINHFFCDLPPVLALSCSDTFTSEVVTFIVSVVVGIVSVLVVLISYGYIVAAVVKISSATGRTKAFSTCASHLTAVTLFYGSGFFMYMRPSSSYSLNRDKVVSIFYALVIPVVNPIIYSFRNKEIKNAMRKAMERDPGISHGGPFIFMTLG [OR5A2]	–	267 ± 110	–
MAVQGSQRRLLGSLNSTPTAIPQLGLAANQTGARCLEVSISDGLFLSLGLVSLVENALVVATIAKNRNLHSPMYCFICCLALSDLLVSGSNVLETAVILLLEAGALVARAAVLQQLDNVIDVITCSSMLSSLCFLGAIAVDRYISIFYALRYHSIVTLPRARRAVAAIWVASVVFSTLFIAYYDHVAVLLCLVVFFLAMLVLMAVLYVHMLARACQHAQGIARLHKRQRPVHQGFGLKGAVTLTILLGIFFLCWGPFFLHLTLIVLCPEHPTCGCIFKNFNLFLALIICNAIIDPLIYAFHSQELRRTLKEVLTCSW [MC1R]	299 ± 43	–	–
MAWENQTFNSDFILLGIFNHSPPHTFLFFLVLGIFLVAFMGNSVMVLLIYLDTQLHTPMYFLLSQLSLMDLMLICTTVPKMAFNYLSGSKSISMAGCVTQIFFYISLSGSECFLLAVMAYDRYIAICHPLRYTNLMNPKICGLMATFSWILGSTDGIIDAVATFSFSFCGSREIAHFFCEFPSLLILSCNDTSIFEEVIFICCIVMLVFPVAIIIASYARVILAVIHMGSGEGRCKAFTTCSSHLMVVGMYYGAALFMYIRPTSDHSPTQDKMVSVFYTILTPMLNPLIYSLRNKEVTRAFMKILGKGKSESELPHKLYVLLFAKFFFLISIFFYDVKILALIMYIA [OR2M2]	–	134 ± 22	–
MAWENQTFNSDFILLGIFNHSPTHTFLFFLVLAIFSVAFMGNSVMVLLIYLDTQLHTPMYFLLSQLFLMDLMLICSTVPKMAFNYLSGSKSISMAGCATQIFFYVSLLGSECFLLAVMSYDRYIAICHPLRYTNLMRPKICGLMTAFSWILGSMDAIIDAVATFSFSYCGSREIAHFFCDFPSLLILSCNDTSIFEKVLFICCIVMIVFPVAIIIASYARVILAVIHMGSGEGRRKAFTTCSSHLMVVGMYYGAGLFMYIRPTSDRSPMQDKLVSVFYTILTPMLNPLIYSLRNKEVTRALRKVLGKGKCGE [OR2M5]	–	111 ± 20	–
MAWENQTFNSDFLLLGIFNHSPTHTFLFFLVLAIFSVAFMGNSIMVLLIYLDTQLHTPMYFLLSQLSLMDLMLICTTVPKMAFNYLSGSKSISMAGCATQIFFYISLLGSECFLLAVMSYDRYTAICHPLRYTNLMRPKICGLMTAFSWILGSTDGIIDAVATFSFSYCGSREIAHFCCDFPSLLILSCNDTSIFEEVIFICCIVMLVFPVAIIITSYARVILAVIHMGSGEGRRKAFTTCSSHLMVVGMYYGAGLFMCIQPTSHHSPMQDKMVSVFYTIVTPMLNPLIYSLRNKEVTRALMKILGKGKSGD [OR2M7]	–	157 ± 44	–
